Measured values reported in CN109021104A (SHANGHAI CHEMPARTNER CO LTD; GATEWAY BIOTECHNOLOGY SHANGHAI …, dated 2018).

Molecular target: T1, 人源PDGFRβ全长 (human PDGFRβ, full length, on cells) (human, UniProt P09619 33-1106)
T1 construct: whole, on cells; also called HEK293-hPDGFRβ稳定细胞株; 细胞表面的PDGFRβ
Experiment: flow cytometry on HEK293-hPDGFRβ cells, Alexa488 secondary antibody

T1 sequence (P09619 33-1106): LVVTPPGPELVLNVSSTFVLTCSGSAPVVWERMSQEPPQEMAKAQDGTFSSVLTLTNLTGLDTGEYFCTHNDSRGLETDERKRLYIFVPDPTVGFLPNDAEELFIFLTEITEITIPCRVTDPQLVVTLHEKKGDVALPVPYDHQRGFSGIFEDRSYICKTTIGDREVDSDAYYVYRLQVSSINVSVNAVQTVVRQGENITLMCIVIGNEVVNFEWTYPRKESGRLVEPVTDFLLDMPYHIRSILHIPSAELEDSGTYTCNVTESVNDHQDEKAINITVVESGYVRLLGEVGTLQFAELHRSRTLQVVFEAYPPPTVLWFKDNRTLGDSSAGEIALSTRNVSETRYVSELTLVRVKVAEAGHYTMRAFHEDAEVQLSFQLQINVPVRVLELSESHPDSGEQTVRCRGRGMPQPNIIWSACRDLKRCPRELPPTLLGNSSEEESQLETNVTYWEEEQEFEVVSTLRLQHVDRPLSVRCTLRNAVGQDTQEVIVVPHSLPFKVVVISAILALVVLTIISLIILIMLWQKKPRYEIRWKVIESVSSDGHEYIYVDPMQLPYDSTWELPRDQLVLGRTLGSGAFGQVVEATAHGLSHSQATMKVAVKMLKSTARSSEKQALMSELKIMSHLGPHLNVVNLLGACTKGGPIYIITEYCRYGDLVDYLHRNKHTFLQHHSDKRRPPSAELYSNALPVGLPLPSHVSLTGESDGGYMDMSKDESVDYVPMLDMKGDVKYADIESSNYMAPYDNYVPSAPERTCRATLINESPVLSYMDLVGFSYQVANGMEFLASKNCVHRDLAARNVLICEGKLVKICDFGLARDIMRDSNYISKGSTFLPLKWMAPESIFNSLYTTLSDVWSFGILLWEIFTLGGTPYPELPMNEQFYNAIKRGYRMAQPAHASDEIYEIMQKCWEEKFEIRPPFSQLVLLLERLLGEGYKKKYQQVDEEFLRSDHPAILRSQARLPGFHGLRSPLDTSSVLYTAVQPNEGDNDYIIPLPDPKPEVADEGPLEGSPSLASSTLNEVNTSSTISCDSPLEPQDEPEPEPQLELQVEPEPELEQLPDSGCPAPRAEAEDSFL

B1: 39E10E12B3 (antibody, V domains shown)
VH: EVQLVESGGGVVQPGRSLRLSCAASGFTFSSYGMHWVRQAPGKGLEWVAVIWYDGSNKYYADSVKGRFTISRDNSKNTLYLQMNSLRAEDTAVYYCAVTGDVDYWGQGTLVTVSS
notes: Heavy-chain-only monoclonal antibody (no light chain), purified from a hybridoma made from HCAb transgenic mice; also called 重链抗体39E10E12B3; PDGFRβ抗体
Q: Does B1 bind?
A: Result: binds
